Experiments:
[1] = system: ERα and ERβ; details: Barkham et al. (1998) Molecular Pharmacology, 54:105-112; cited from earlier work
[2] = system: ZFP757-ERalpha LBD (synthetic/human); test: cell_activity; details: AnxA8 mRNA, 100 nM 17beta-estradiol vs untreated, HEK293
[3] = system: ZFP1727-TRbeta LBD (synthetic/human); test: cell_activity; details: GRP mRNA, 100 nM T3, HEK293
[4] = system: ZFP734-FXR LBD (synthetic/human); test: cell_activity; details: Kip2 mRNA, 100 nM CDCA vs untreated, HEK293

## C[C@]12CC[C@@H]3c4ccc(O)cc4CC[C@H]3[C@@H]1CC[C@H]2O [17alpha-estradiol]
[1]
  activation of ERα and ERβ as known from the literature: preferentially activates ERα

## CGGGCGGCTG (double strand) [anxA8 site (ZFP757)]
[2]
  activity: 12 fold

## GGTGGGGAGG (double strand) [GRP site (ZFP1727)]
[3]
  activity: 14 fold

## GGGGCTGGGT (double strand) [kip2 site (ZFP734)]
[4]
  activity: 3.5 fold

— patent US20040235002A1, “Multiplex screening assays” (Sangamo BioSciences, Inc., priority 2002, published 2004)
